These results are taken from the supplement of paper PMC9112550, “Optimization of the antimicrobial peptide Bac7 by deep mutational scanning” (BMC Biology, 2022).
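Further: peptides expressed intracellularly from a pBAD plasmid library in pooled LB shake-flask culture, induced with 0.3% L-arabinose, DNA abundance read by NGS, three biological replicates, DESeq2 with apeglm shrinkage.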

The test system of the data set is Escherichia coli TOP10. The data set can be described thus: shrunken log2 fold change of peptide-encoding DNA abundance (4.5 h post-induction vs induction); higher = less antimicrobial activity (less host growth inhibition). The settings on record: time post-induction: 4.5 h; library: site-saturation at positions 5, 18, 19, 20.
As for RRIRFRPPRLPRPRPRPKWIPRP, the “shrunken log2 fold change” value is -0.699. Next, RRIRGRPPRLPRPRPRPDHSPRP: -0.0179; RRIRCRPPRLPRPRPRPRTMPRP: -0.0155; RRIRDRPPRLPRPRPRPTGPPRP: 0.334. Next, RRIRFRPPRLPRPRPRPEPHPRP: 0.258; RRIRHRPPRLPRPRPRPYETPRP: -0.151. Next, RRIRQRPPRLPRPRPRPYGWPRP: -0.112; RRIRKRPPRLPRPRPRPHHVPRP: -0.348; RRIRMRPPRLPRPRPRPCYCPRP: -0.289.

Turning to RRIRYRPPRLPRPRPRPRLIPRP, the “shrunken log2 fold change” value was -0.466. Under RRIRYRPPRLPRPRPRPIHMPRP stands -0.0796; under RRIRNRPPRLPRPRPRPLNAPRP, -0.662. RRIRGRPPRLPRPRPRPGQWPRP: the “shrunken log2 fold change” value was found to be 0.356.

As for RRIRCRPPRLPRPRPRPHLEPRP, the “shrunken log2 fold change” value stood at 0.0414. Under RRIRKRPPRLPRPRPRPCAQPRP stands 0.208; under RRIRRRPPRLPRPRPRPGVIPRP, -0.0223. Under RRIRMRPPRLPRPRPRPGMYPRP stands 0.124. Next, RRIRERPPRLPRPRPRPYQWPRP: 0.0039; RRIRRRPPRLPRPRPRPVDCPRP: 0.12. For RRIRYRPPRLPRPRPRPILSPRP, the “shrunken log2 fold change” value is -0.107. Next, RRIRIRPPRLPRPRPRPPFTPRP: 0.0753; RRIRERPPRLPRPRPRPHLVPRP: -0.125; RRIRPRPPRLPRPRPRPGIVPRP: -0.0451. Under RRIRNRPPRLPRPRPRPVPNPRP stands -0.0122; under RRIRKRPPRLPRPRPRPTNHPRP, -0.0148; under RRIRFRPPRLPRPRPRPVKFPRP, -0.0322. Under RRIRKRPPRLPRPRPRPRFKPRP stands 0.52; under RRIRDRPPRLPRPRPRPRRSPRP, 0.174. Regarding RRIRVRPPRLPRPRPRPVEFPRP, the “shrunken log2 fold change” value was found to be 0.0286. As to RRIRPRPPRLPRPRPRPAVAPRP, the “shrunken log2 fold change” value turned out to be 0.416.

Turning to RRIRTRPPRLPRPRPRPWYHPRP, the “shrunken log2 fold change” value is -0.464. Under RRIRVRPPRLPRPRPRPIDKPRP stands -0.471; under RRIRRRPPRLPRPRPRPHYEPRP, -0.508.

In the case of RRIRFRPPRLPRPRPRPYAHPRP, the “shrunken log2 fold change” value was -0.18. Under RRIRNRPPRLPRPRPRPRQLPRP stands 0.244; under RRIRARPPRLPRPRPRPTAMPRP, 0.822; under RRIRPRPPRLPRPRPRPDYNPRP, -0.553. Under RRIRIRPPRLPRPRPRPRSTPRP stands -0.391. Next, RRIRKRPPRLPRPRPRPWVLPRP: 0.0941; RRIRQRPPRLPRPRPRPWDAPRP: -0.0479. Turning to RRIRHRPPRLPRPRPRPEFNPRP, the “shrunken log2 fold change” value turned out to be 0.0664. Next, RRIRYRPPRLPRPRPRPAVVPRP: -0.149. Next, RRIRQRPPRLPRPRPRPWAGPRP: 0.0868; RRIRLRPPRLPRPRPRPTAPPRP: 0.645. Under RRIRHRPPRLPRPRPRPHKAPRP stands -0.31; under RRIRTRPPRLPRPRPRPGMQPRP, -0.0474.

For the sequence RRIRERPPRLPRPRPRPCMTPRP, the “shrunken log2 fold change” value was -0.00173. Under RRIRVRPPRLPRPRPRPMMEPRP stands 0.00705; under RRIRGRPPRLPRPRPRPIILPRP, 0.197; under RRIRKRPPRLPRPRPRPLPNPRP, -0.0104. Turning to RRIRERPPRLPRPRPRPYNMPRP, the “shrunken log2 fold change” value stood at 0.0461. Under RRIRFRPPRLPRPRPRPSAHPRP stands -0.352; under RRIRCRPPRLPRPRPRPPYPPRP, -0.193.

In the case of RRIRWRPPRLPRPRPRPWFSPRP, the “shrunken log2 fold change” value came out at 0.0565. On to RRIRHRPPRLPRPRPRPYVYPRP, for which the “shrunken log2 fold change” value was -0.0796. Next, RRIRQRPPRLPRPRPRPSTTPRP: -0.572. Next, RRIRDRPPRLPRPRPRPEMRPRP: 1.29. Consider RRIRRRPPRLPRPRPRPSTSPRP, for which the “shrunken log2 fold change” value came to 0.0625. Next, RRIRCRPPRLPRPRPRPQQGPRP: 0.188. Next, RRIRLRPPRLPRPRPRPDDGPRP: -0.00277; RRIRGRPPRLPRPRPRPICNPRP: 0.645. Under RRIRIRPPRLPRPRPRPMNLPRP stands -0.152; under RRIRLRPPRLPRPRPRPQINPRP, -0.506; under RRIRNRPPRLPRPRPRPWQNPRP, 0.191. RRIRLRPPRLPRPRPRPKSTPRP: the “shrunken log2 fold change” value is -0.222. Under RRIRGRPPRLPRPRPRPFYTPRP stands -0.173; under RRIRERPPRLPRPRPRPDFPPRP, 0.00147; under RRIRDRPPRLPRPRPRPCVQPRP, 0.239. RRIRNRPPRLPRPRPRPWYGPRP: the “shrunken log2 fold change” value is -0.56. Under RRIRARPPRLPRPRPRPSQVPRP stands 0.0429. Under RRIRNRPPRLPRPRPRPSQIPRP stands -0.664. Consider RRIRIRPPRLPRPRPRPDFDPRP, for which the “shrunken log2 fold change” value was -0.137.

Take RRIRFRPPRLPRPRPRPLQEPRP: the “shrunken log2 fold change” value is -0.203. Under RRIRSRPPRLPRPRPRPIPHPRP stands -0.184; under RRIRVRPPRLPRPRPRPVCWPRP, 0.472. Under RRIRLRPPRLPRPRPRPLTCPRP stands -0.0184; under RRIRCRPPRLPRPRPRPRQIPRP, 0.192; under RRIRKRPPRLPRPRPRPPTWPRP, 0.702. Next, RRIRARPPRLPRPRPRPARMPRP: 0.724. For the sequence RRIRMRPPRLPRPRPRPILKPRP, the “shrunken log2 fold change” value is -0.206. Turning to RRIRTRPPRLPRPRPRPNPAPRP, the “shrunken log2 fold change” value was found to be 0.147. Next, RRIRLRPPRLPRPRPRPGMSPRP: 0.0159.

For RRIRCRPPRLPRPRPRPYPDPRP, the “shrunken log2 fold change” value was -0.282. Under RRIRIRPPRLPRPRPRPTCAPRP stands -0.166. Next, RRIRVRPPRLPRPRPRPNGDPRP: -0.187; RRIRQRPPRLPRPRPRPHGKPRP: -0.352; RRIRMRPPRLPRPRPRPEGMPRP: 2.24.

Take RRIRQRPPRLPRPRPRPINRPRP: the “shrunken log2 fold change” value was -0.341. Next, RRIRERPPRLPRPRPRPPHSPRP: 0.0332.

RRIRTRPPRLPRPRPRPMINPRP: the “shrunken log2 fold change” value is -0.239.

For RRIRHRPPRLPRPRPRPQFIPRP, the “shrunken log2 fold change” value is -0.0365. Next, RRIRHRPPRLPRPRPRPIGQPRP: -0.042; RRIRNRPPRLPRPRPRPNWPPRP: 0.142.

Take RRIRFRPPRLPRPRPRPSMKPRP: the “shrunken log2 fold change” value was -0.753.

For the sequence RRIRTRPPRLPRPRPRPGLFPRP, the “shrunken log2 fold change” value is 0.458. Next, RRIRSRPPRLPRPRPRPANVPRP: 0.218; RRIRARPPRLPRPRPRPIQKPRP: 0.00369; RRIRKRPPRLPRPRPRPWPNPRP: 0.0221. Under RRIRSRPPRLPRPRPRPHPKPRP stands 0.12; under RRIRARPPRLPRPRPRPHKKPRP, -0.163. Turning to RRIRTRPPRLPRPRPRPVQVPRP, the “shrunken log2 fold change” value was determined as 0.0995. As for RRIRERPPRLPRPRPRPLNPPRP, the “shrunken log2 fold change” value was -0.0394. Next, RRIRDRPPRLPRPRPRPKNSPRP: 0.788.

As for RRIRDRPPRLPRPRPRPEFPPRP, the “shrunken log2 fold change” value was -0.00168. Under RRIRPRPPRLPRPRPRPCGTPRP stands 0.155; under RRIRGRPPRLPRPRPRPPRAPRP, 1.25. As for RRIRMRPPRLPRPRPRPKYIPRP, the “shrunken log2 fold change” value was -0.161. Under RRIRARPPRLPRPRPRPPTRPRP stands 1.29; under RRIRLRPPRLPRPRPRPYGHPRP, 2.49. Under RRIRMRPPRLPRPRPRPHQKPRP stands -0.0408.

RRIRTRPPRLPRPRPRPGANPRP: the “shrunken log2 fold change” value is -0.124. Regarding RRIRYRPPRLPRPRPRPRDHPRP, the “shrunken log2 fold change” value was -0.308. Under RRIRQRPPRLPRPRPRPEELPRP stands -0.0362.

In the case of RRIRARPPRLPRPRPRPRREPRP, the “shrunken log2 fold change” value was 0.631.

For the sequence RRIRGRPPRLPRPRPRPLKKPRP, the “shrunken log2 fold change” value turned out to be 0.195. Regarding RRIRFRPPRLPRPRPRPSVIPRP, the “shrunken log2 fold change” value is -0.339. Next, RRIRHRPPRLPRPRPRPCVIPRP: -0.0839.

Consider RRIRTRPPRLPRPRPRPTMVPRP, for which the “shrunken log2 fold change” value was -0.0941. Under RRIRYRPPRLPRPRPRPALPPRP stands -0.0414; under RRIRERPPRLPRPRPRPLPIPRP, -0.0301. Next, RRIRRRPPRLPRPRPRPLIWPRP: 0.192; RRIRPRPPRLPRPRPRPNLTPRP: 0.0262; RRIRPRPPRLPRPRPRPCCRPRP: -0.339. Under RRIRMRPPRLPRPRPRPNHCPRP stands 0.0039; under RRIRNRPPRLPRPRPRPFSIPRP, 0.000741.
